In the oligonucleotide strings, read from the 5' end, every base follows the letter of its sugar. An asterisk marks phosphorothioate; unmarked linkages are phosphodiester. Other units and linkages are bracketed, terminal groups are in braces. A string of capitals states the bases alone. m = 2'-O-methyl; r = 2'-OH (RNA)
B1: GA226: PCSK9 gRNA; protospacer GGCTTTTCCGAATAAACTCC (SEQ ID NO: 220) (nucleic acid)
guide: GGCUUUUCCGAAUAAACUCCGUUUUAGAGCUAGAAAUAGCAAGUUAAAAUAAGGCUAGUCCGUUAUCAACUUGAAAAAGUGGCACCGAGUCGGUGCUUUU
modifications: sugars from the 5' end m3 r94 m3, linkages s3 o93 s3 (s phosphorothioate, o phosphodiester), T or U not given here
B2: GA008: structure-guided 2′-OMe heavy guide RNA (gRNA) design, PCSK9 (nucleic acid)
guide: mG*mG*mU*rGrCrUrArGrCrCrUrUrGrCrGrUrUrCrCrGmGrUrUrUrUrArGmAmGmCmUmAmGmAmAmAmUmAmGmCmAmArGrUrU*mArAmArAmUrAmAmGmGmCmUmArGrUmCmCrGrUrU*rAmUmCrArAmCmUmUmGmAmAmAmAmAmGmUmGrGmCmAmCmCmGmAmGmUmCmGmGmUmGmCmU*mU*mU*mU
B3: GA007: structure-guided 2′-OMe heavy guide RNA (gRNA) design, PCSK9 (nucleic acid)
guide: mG*mG*mU*rGrCrUrArGrCrCrUrUrGrCrGrUrUrCrCrGmGrUrUrUrUrArGmAmGmCmUmAmGmAmAmAmUmAmGmCmAmArGrUrUmArAmArAmUrAmAmGmGmCmUmArGrUmCmCrGrUrUrAmUmCrArAmCmUmUmGmAmAmAmAmAmGmUmGrGmCmAmCmCmGmAmGmUmCmGmGmUmGmCmU*mU*mU*mU
B4: GA401 (nucleic acid)
guide: mU*mC*mA*rGrCrUrCrCrArGrGrCrGrGrUrCrCrUrGrGmGrUrUrUrUrArGmAmGmCmUmAmGmAmAmAmUmAmGmCmAmArGrUrUmArAmArAmUrAmAmGmGmCmUmArGrUmCmCrGrUrUrAmUmCrArAmCmUmUmGmAmAmAmAmAmGmUmGrGmCmAmCmCmGmAmGmUmCmGmGmUmGmCmU*mU*mU*mUmUmUmU
B5: GA408 (nucleic acid)
guide: mU*mC*mA*rGrCrUrCrCrArGrGrCrGrGrUrCrCrUrGrGmGrUrUrUrUrArGmAmGmCmUmAmGmAmAmAmUmAmGmCmAmArGrUrUmArAmArAmUrAmAmGmGmCmUmArGrUmCmCrGrUrUrAmUmCrArAmCmUmUmGmAmAmAmAmAmGmUmGrGmCmAmCmCmGmAmGmUmCmGmGmUmGmCmU*mU*mU*mUmUrUmU
B6: GA406 (nucleic acid)
guide: TCAGCTCCAGGCGGTCCTGGGTTTTAGAGCTAGAAATAGCAAGTTAAAATAAGGCTAGTCCGTTATCAACTTGAAAAAGTGGCACCGAGTCGGTGCTTTTTTT
modifications: listed as RNA; modified_base 1: mod_base = OTHER; note = 2'-O-Methyl-uridine phosphorothioate; modified_base 2: mod_base = OTHER; note = 2'-O-Methyl-cytidine phosphorothioate; modified_base 3: mod_base = OTHER; note = 2'-O-Methyl-adenosine phosphorothioate;
B7: GA402 (nucleic acid)
guide: mU*mC*mA*rGrCrUrCrCrArGrGrCrGrGrUrCrCrUrGrGmGrUrUrUrUrArGmAmGmCmUmArGmAmAmAmUmAmGmCmAmArGrUrUmArAmArAmUrAmAmGmGmCmUmArGrUmCmCrGrUrUrAmUmCrArAmCmUmUrGmAmAmAmAmAmGmUmGrGmCmAmCmCmGmAmGmUmCmGmGmUmGmCmU*mU*mU*mUmUrUmU
B8: GA404 (nucleic acid)
guide: mU*mC*mA*rGrCrUrCrCrArGrGrCrGrGrUrCrCrUrGrGmGrUrUrUrUrArGmAmGmCmUmArGmAmAmAmUmAmGmCmAmArGrUrUmArAmArAmUrAmAmGmGmCmUmArGrUmCmCrGrUrU*rAmUmCrArAmCmUmUrGmAmAmAmAmAmGmUmGrGmCmAmCmCmGmAmGmUmCmGmGmUmGmCmU*mU*mU*mUmUrUmU
B9: GA403 (nucleic acid)
guide: mU*mC*mA*rGrCrUrCrCrArGrGrCrGrGrUrCrCrUrGrGmGrUrUrUrUrArGmAmGmCmUmArGmAmAmAmUmAmGmCmAmArGrUrU*mArAmArAmUrAmAmGmGmCmUmArGrUmCmCrGrUrUrAmUmCrArAmCmUmUrGmAmAmAmAmAmGmUmGrGmCmAmCmCmGmAmGmUmCmGmGmUmGmCmU*mU*mU*mUmUrUmU

Each molecule was assayed on PCSK9 gene (assay: PCSK9 gRNA/SpCas9 editing in primary human hepatocytes (Tables 2, 4)). Details: 100 ng/RNA/mL; SpCas9 mRNA MS002 1:1 by weight.
Assay type: cell-based
Procedure: (§1) In set of experiments, PCSK9 gRNAs were co-transfected with an equivalent amount (1:1 ratio by weight) of in vitro transcribed commercially available SpCas9 mRNA MS002 purchased from TriLink Biotechnologies into primary human hepatocytes at 2500, 500, or 100 ng/RNA/mL and processed as described in detailed methods. Extracted genomic DNA was analyzed for gene editing at the target site with next-generation sequencing of PCR amplicons generated around the target sites. Samples were prepared using the Nextera XT DNA library preparation kit (Illumina) according to the manufacturer's protocol. Briefly, two rounds of PCR were performed first to amplify the region of interest and second to add DNA sequences required for next generation sequencing and sample identification to the initial product. The final amplicon was sequenced on the Illumina MiSeq instrument according to the manufacturer's protocol. A wide range of editing activities (Table 2) were observed. In a second set of experiments, ANGPTL3 gRNAs were co-transfected with an equivalent amount of in vitro transcribed SpCas9 mRNA (1:1 ratio by weight) into primary human hepatocytes and processed and analyzed similarly (Table 3).
PCSK9 gRNAs were co-transfected with an equivalent amount of in vitro transcribed SpCas9 mRNA MS002 (1:1 ratio by weight) into primary human hepatocytes and processed as described in detailed methods. A wide range of editing activities were observed (Table 4; ND=Not determined). The guides with the highest editing activity at five days post transfection were GA001, GA002, GA007, and GA008.
Human primary hepatocytes were transfected at 2500, 1250, 500, and 250 ng/test article/mL with SpCas9 mRNA MS002 and a gRNA targeting PCSK9 with modifications to the tracr. Genomic DNA was processed, sequenced, and analyzed as described in the detailed methods section. GA156 was transfected to serve as a positive control.
Plating, culturing, and transfection of primary hepatocytes. Primary human liver hepatocytes (PHH) and primary cynomolgus liver hepatocytes (PCH) from BioIVT were cultured per the manufacturer's protocol. Briefly, primary human hepatocytes and primary cyno hepatocytes were obtained as frozen aliquots from BioIVT. Four lots of primary human hepatocytes, each derived from a de-identified individual donor, were used for the experiments: STL (main donor) was used for all experiments, including screening experiments and off-target experiments; HLY, JLP, and TLY were used for off-target experiments. The HFG lot of primary cyno hepatocytes were used for experiments. Following the manufacturer's instructions, cells were thawed and rinsed prior to plating in 24-well plates that had been coated with bovine collagen overnight, with a density of approximate 350,000 cells/well in INVITROGRO hepatocyte medium supplemented with TORPEDO antibiotic mix (BioIVT). The cells were thawed and resuspended in hepatocyte thawing medium followed by centrifugation at 100 g for 10 min at 4° C. The supernatant was discarded, and the pelleted cells resuspended in hepatocyte plating medium. Each vial contains approximately 5 million cells that were used for plating one 24-well plate. Plated cells were allowed to settle and adhere for 4-6 h in a tissue culture incubator at 37° C. under 5% CO2 atmosphere. After incubation, cells were checked for monolayer formation. The incubating media were then replaced with fresh hepatocyte maintenance media (complete INVITROGRO medium obtained from BioIVT, the cell line provider). The cells thus became ready for transfection. Each of the gRNAs were co-transfected with an equivalent amount of in vitro transcribed ABE8.8 mRNA (1:1 ratio by molecular weight) into primary human hepatocytes via MessengerMax reagent (Lipofectamine), using various dilutions to assess for editing activity at different concentrations of test article. MessengerMAX from Thermo Fisher is used for transfection. […]

Row | Molecule | Human Primary Hepatocyte Editing % 100 [%]
1 | B1 | 0.4

Same assay, conditions: 500 ng/RNA/mL; SpCas9 mRNA MS002 1:1 by weight

Row | Molecule | Human Primary Hepatocyte Editing % 500 [%]
2 | B1 | 2.99

Same assay, conditions: 2500 ng/RNA/mL; SpCas9 mRNA MS002 1:1 by weight

Row | Molecule | Human Primary Hepatocyte Editing % 2500 [%]
3 | B1 | 7.61

Same assay, conditions: SpCas9 mRNA MS002

Row | Molecule | editing compared with minimally modified control gRNA GA009
4 | B2 | improved editing
5 | B3 | improved editing

Same assay, conditions: modified gRNA, SpCas9 mRNA MS002 1:1 by weight; day 3 post transfection

Row | Molecule | % Editing, day 3 [%]
6 | B2 | 20
7 | B3 | 30

Same assay, conditions: modified gRNA, SpCas9 mRNA MS002 1:1 by weight; day 5 post transfection

Row | Molecule | % Editing, day 5 [%]
8 | B2 | 28
9 | B3 | 27

These molecules were tested on PCSK9 gene (assay: PCSK9 gRNA/SpCas9 editing in primary cynomolgus hepatocytes (Tables 2, 22)). Details: SpCas9 mRNA MS002, 625 ng/test article/mL, rep1.
Assay type: cell-based, cynomolgus monkey
Procedure: as §1
[…] Genomic DNA was processed, sequenced, and analyzed as described in the detailed methods section. GA266 was transfected independently twice to serve as two positive controls.
Plating, culturing, and transfection of primary hepatocytes. Primary human liver hepatocytes (PHH) and primary cynomolgus liver hepatocytes (PCH) from BioIVT were cultured per the manufacturer's protocol. Briefly, primary human hepatocytes and primary cyno hepatocytes were obtained as frozen aliquots from BioIVT. Four lots of primary human hepatocytes, each derived from a de-identified individual donor, were used for the experiments: STL (main donor) was used for all experiments, including screening experiments and off-target experiments; HLY, JLP, and TLY were used for off-target experiments. The HFG lot of primary cyno hepatocytes were used for experiments. Following the manufacturer's instructions, cells were thawed and rinsed prior to plating in 24-well plates that had been coated with bovine collagen overnight, with a density of approximate 350,000 cells/well in INVITROGRO hepatocyte medium supplemented with TORPEDO antibiotic mix (BioIVT). The cells were thawed and resuspended in hepatocyte thawing medium followed by centrifugation at 100 g for 10 min at 4° C. The supernatant was discarded, and the pelleted cells resuspended in hepatocyte plating medium. Each vial contains approximately 5 million cells that were used for plating one 24-well plate. Plated cells were allowed to settle and adhere for 4-6 h in a tissue culture incubator at 37° C. under 5% CO2 atmosphere. After incubation, cells were checked for monolayer formation. The incubating media were then replaced with fresh hepatocyte maintenance media (complete INVITROGRO medium obtained from BioIVT, the cell line provider). The cells thus became ready for transfection. Each of the gRNAs were co-transfected with an equivalent amount of in vitro transcribed ABE8.8 mRNA (1:1 ratio by molecular weight) into primary human hepatocytes via MessengerMax reagent (Lipofectamine), using various dilutions to assess for editing activity at different concentrations of test article. MessengerMAX from Thermo Fisher is used for transfection. Solution A: desired amount of guide RNA is mixed with 1:1 wt ratio of mRNA in OptiMEM. Solution B: MessengerMAX in OptiMEM. After mixing solutions A and B, the mixture was incubated at room temperature for 20 min. 60 μL of the incubated solution was added dropwise to each cell wells. For protospacer sequences that were a perfect match to the corresponding cynomolgous monkey PCSK9 or ANGPTL3 gene sequence, each gRNA was also co-transfected with an equivalent amount of ABE8.8 mRNA (1:1 ratio by molecular weight) into primary cynomolgous hepatocytes, and followed the same transfection protocol. […]

Row | Molecule | Cynomolgus Primary Hepatocytes-% Editing [%]
10 | B4 | 38.33
11 | B5 | 36.7
12 | B6 | 37.58
13 | B7 | 35.05
14 | B8 | 31.63
15 | B9 | 38.28

Same assay, conditions: SpCas9 mRNA MS002, 625 ng/test article/mL, rep2

Row | Molecule | Cynomolgus Primary Hepatocytes-% Editing [%]
16 | B4 | 38.77
17 | B5 | 37.14
18 | B6 | 40.31
19 | B7 | 40.31
20 | B8 | 30.16
21 | B9 | 35.58

Same assay, conditions: SpCas9 mRNA MS002, 1250 ng/test article/mL, rep1

Row | Molecule | Cynomolgus Primary Hepatocytes-% Editing [%]
22 | B4 | 49.12
23 | B5 | 47.21
24 | B6 | 45.11
25 | B7 | 44.46
26 | B8 | 41.68
27 | B9 | 50.5

Same assay, conditions: SpCas9 mRNA MS002, 1250 ng/test article/mL, rep2

Row | Molecule | Cynomolgus Primary Hepatocytes-% Editing [%]
28 | B4 | 48.83
29 | B5 | 49.8
30 | B6 | 43.68
31 | B7 | 47.93
32 | B8 | 35.04
33 | B9 | 47.13

Same assay, conditions: SpCas9 mRNA MS002, 2500 ng/test article/mL, rep1

Row | Molecule | Cynomolgus Primary Hepatocytes-% Editing [%]
34 | B4 | 53.74
35 | B5 | 50.4
36 | B6 | 57.17
37 | B7 | 45.58
38 | B8 | 48.3
39 | B9 | 52.62

Same assay, conditions: SpCas9 mRNA MS002, 2500 ng/test article/mL, rep2

Row | Molecule | Cynomolgus Primary Hepatocytes-% Editing [%]
40 | B4 | 52.79
41 | B5 | 46.92
42 | B6 | 51.45
43 | B7 | 55.34
44 | B8 | 50.59
45 | B9 | 55.84

From US20250152746A1, “BASE EDITING OF ANGPTL3 AND METHODS OF USING SAME FOR TREATMENT OF DISEASE” (Verve Therapeutics, Inc., priority 2020, published 2025)
